Results from patent publication US20090123474A1, “COMBINATION OF ANGIOPOIETIN-2 ANTAGONIST AND OF VEGF-A, KDR AND/OR FLTL ANTAGONIST FOR TREATING CANCER” (ASTRAZENECA AB, priority 2005, published 2009).

T1: Angiopoietin-2 binding to Tie-2 (Homo sapiens, UniProt O15123)
T1 construct: purchased R&D Systems, Inc. BT623 (Angiopoietin-2, biotinylated); 313-TI-100 (Tie-2/Fc)
T1 sequence (O15123 19-496): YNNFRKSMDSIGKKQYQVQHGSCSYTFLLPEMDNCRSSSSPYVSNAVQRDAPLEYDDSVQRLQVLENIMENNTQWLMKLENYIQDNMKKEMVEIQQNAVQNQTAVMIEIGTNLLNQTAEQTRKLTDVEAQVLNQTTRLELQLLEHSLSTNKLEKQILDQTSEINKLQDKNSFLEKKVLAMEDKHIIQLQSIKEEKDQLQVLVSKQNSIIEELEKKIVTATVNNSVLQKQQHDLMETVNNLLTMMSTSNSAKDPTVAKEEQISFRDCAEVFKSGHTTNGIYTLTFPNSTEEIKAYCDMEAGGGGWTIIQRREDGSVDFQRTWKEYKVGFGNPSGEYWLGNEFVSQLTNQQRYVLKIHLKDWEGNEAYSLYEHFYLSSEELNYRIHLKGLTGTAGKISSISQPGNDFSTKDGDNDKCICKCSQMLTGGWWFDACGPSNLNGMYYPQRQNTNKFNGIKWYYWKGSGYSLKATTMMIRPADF


Biological target: T1, Angiopoietin-2 binding to Tie-2
Experiment: Competitive binding assay (modified ELISA): inhibition of Angiopoietin-2 binding to Tie-2
Conditions: for EC50: potency, competitive binding of Angiopoietin-2 to Tie-2, purified mAb; for Efficacy*: ratio of bound Angiopoietin-2 with mAb (30 μg/ml) versus without mAb
Method: As discussed above, Angiopoietin-2 exerts its biological effect by binding to the Tie-2 receptor. Monoclonal antibodies that inhibited Angiopoietin-2/Tie-2 binding were identified by a competitive binding assay using a modified ELISA. The mAb used were products of micro-purification from 50 ml of exhaustive supernatants of the hybridoma pools that were specific for Angiopoietin-2 (see above). 96-well Nunc Immplates™ were coated with 100 μl of recombinant human Tie-2/Fc fusion protein (R&D Systems, Inc., Cat. No. 313-TI-100) at 4 μg/ml by incubating overnight at 4° C. The plates were washed four times using Phosphate Buffer Saline (PBS) with a Skan™ Washer 300 station (SKATRON). The wells were blocked by 100 μl of ABX-blocking buffer (0.5% BSA, 0.1% Tween, 0.01% Thimerosal in PBS) for 1 hour.
Biotinylated recombinant human Angiopoietin-2 (R&D Systems, Inc. Cat. No. […] The plates were incubated at room temperature for two hours before the unbound molecules were washed off. Bound biotinylated Angiopoietin-2 was then detected using 100 μl/well of Streptavidin-HRP conjugate at 1:200 by incubating at room temperature for half an hour. After washing twice, the bound Streptavidin was detected by HRP substrate (R&D Systems, Cat. No. DY998). The plates were incubated for 30 minutes before 450 stop solution (100 μl/well, BioFX, Cat# BSTP-0100-01) was added to terminate the reaction. The light absorbance at 450 nm was determined by a Spectramax Plus reader.
Soluble recombinant Tie-2/Fc fusion protein at 10-fold molar excess to Angiopoietin-2 was used as a positive control. At this concentration, Tie-2/Fc inhibited binding of Angiopoietin-2 to immobilized Tie-2 by 80%.
To quantitate the inhibitory activities of the mAb on Angiopoietin-2 binding to Tie-2, the titer was determined for purified mAbs from the top candidates using a competitive binding assay. Each concentration of the mAb was tested in duplicate. The concentration-response relationship was found by curve fitting using Graphpad Prism™ graphic software (non-linear, Sigmoid curve). The maximal inhibition (efficacy) and IC50 (potency) were calculated by the software.

| Molecule | EC50 | Efficacy* | inhibition of binding of Angiopoietin-2 to immobilized Tie-2 (positive control at 10-fold molar excess to Angiopoietin-2) |
| --- | --- | --- | --- |
| mAb 5.16.3: fully human anti-Angiopoietin-2 monoclonal antibody, variable regions SEQ ID NO: 13-16 (antibody, listed as Homo sapiens, listed as Homo Sapiens, V domains shown) VH: QVQLVQSGAEVKKPGASVKVSCKASGYTFTGFYMYWVRQAPGQGLEWMGWINPNSSGTNHAQKFQGRVTMTRDTSISTAYMELSRLRSDDTAVYYCARDQDIATAGPFDYWGQGTLVTVSS VL: EIVMTQSPATLSVSPGERATLSCRASQSVSSNLAWYQQKPGQAPRLLIFGASTRATGIPARFSGSGSGTEFTLTISSLQSEDFAVYYCQQYNNWWTFGRGTKVEIKR | 0.08532 µg/mL | 0.3279 | – |
| Tie-2/Fc: soluble recombinant human Tie-2/Fc fusion protein (R&D Systems), positive control (protein, left off: a dimerising Fc or GST, soluble recombinant human Tie-2/Fc fusion protein (R&D Systems), positive control) AMDLILINSLPLVSDAETSLTCIASGWRPHEPITIGRDFEALMNQHQDPLEVTQDVTREWAKKVVWKREKASKINGAYFCEGRVRGEAIRIRTMKMRQQASFLPATLTMTVDKGDNVNISFKKVLIKEEDAVIYKNGSFIHSVPRHEVPDILEVHLPHAQPQDAGVYSARYIGGNLFTSAFTRLIVRRCEAQKWGPECNHLCTACMNNGVCHEDTGECICPPGFMGRTCEKACELHTFGRTCKERCSGQEGCKSYVFCLPDPYGCSCATGWKGLQCNEACHPGFYGPDCKLRCSCNNGEMCDRFQGCLCSPGWQGLQCEREGIQRMTPKIVDLPDHIEVNSGKFNPICKASGWPLPTNEEMTLVKPDGTVLHPKDFNHTDHFSVAIFTIHRILPPDSGVWVCSVNTVAGMVEKPFNISVKVLPKPLNAPNVIDTGHNFAVINISSEPYFGDGPIKSKKLLYKPVNHYEAWQHIQVTNEIVTLNYLEPRTEYELCVQLVRRGEGGEGHPGPVRRFTTASIGLPPPRGLNLLPKSQTTLNLTWQPIFPSSEDDFYVEVERRSVQKSDQQNIKVPGNLTSVLLNNLHPREQYVVRARVNTKAQGEWSEDLTAWTLSDILPPQPENIKISNITHSSAVISWTILDGYSISSITIRYKVQGKNEDQHVDVKIKNATITQYQLKGLEPETAYQVDIFAENNIGSSNPAFSHELVTLPESQAPADLGGGK | – | – | 80% |
| mAb 5.86.1: fully human anti-Angiopoietin-2 monoclonal antibody, variable regions SEQ ID NO: 25-28 (antibody, listed as Homo Sapiens, listed as Homo sapiens, V domains shown) VH: QVQLVQSGAEVKKPGASVKVSCKASGYTFTGYHMYWVRQAPGQGLEWLGWINPNSGGTNYAQKFQGRVTMTRDTSISTAYMELSRLRSDDTAVYYCVRDQGIAAAGPFDYWCQGTLVTVSSA VL: DIRMTQSPSSLSASVGDRVTITCRASQRISTYLNWYQQKPGKAPKFLIYAASSLQSGVPSRFSGSGSGTDFTLTISSLQPEDFATYYCQQSYTTPFTFGPGTKVDIKR | 0.1331 µg/mL | 0.3844 | – |

Second part, the molecule after the results:

| EC50 | Efficacy* | inhibition of binding of Angiopoietin-2 to immobilized Tie-2 (positive control at 10-fold molar excess to Angiopoietin-2) | Molecule |
| --- | --- | --- | --- |
| 2.698 µg/mL | 0.3892 | – | mAb 5.28.1: fully human anti-Angiopoietin-2 monoclonal antibody, variable regions SEQ ID NO: 17-20 (antibody, listed as Homo sapiens, listed as Homo Sapiens, V domains shown) VH: EVQLVESGGIVVQPGGSLRLSCAASGFTFDDYTMHWVRQTPGKGLEWVSLISWDGGSTYYADSVKGRFTISRDNSKNSLYLQMNSLRTEDTALYYCAKDIDIAVAGTGFDHWGQGTLVTVSSA VL: EIVMTQSPATLSVSPGERATLSCRASQSVTSNLAWYQQKPGQAPRLLIYGALIRATGIPARFSGSGSGTEFTLTISSLQSEDFAVYYCQQYNNWPFTFGPGTKVDIKR |
| 0.1684 µg/mL | 0.3881 | – | mAb 3.3.2: fully human anti-Angiopoietin-2 monoclonal antibody, variable regions SEQ ID NO: 1-4 (antibody, listed as Homo Sapiens, V domains shown) VH: EVQLVESGGGLVQPGGSLRLSCAVSGFTFSSYWMSWVRQAPGKGLEWVANIKQDGSEKYYVDSVKGRFTISRDNAKNSLYLQMNSLRAEDTAVYYCARDQGIAVAGPFDYWGQGTLVTVSSA VL: EIVMTQSPATLSVSPGERATLSCRASQTVSSDLAWYQQKPGQAPRLLIYGASIRATGIPARFSGSGSGTEFTLTISSLQSEDFAVYSCQQYYNWWTFGQGTKVEIKR |
| 0.04169 µg/mL | 0.3751 | – | mAb 3.31.2: fully human anti-Angiopoietin-2 monoclonal antibody, variable regions SEQ ID NO: 9-12 (antibody, listed as Homo sapiens, V domains shown) VH: EVQLVESGGGLVQPGGSLRLSCAASGFTFSSYWMSWVRQAPGKGLEWVANIKQDGSDKYYVDSVKGRFTISRDNAKNSLYLRMNSLRAEDTAVFYCARDMGSGWFDYWGQGTLVTVSSA VL: EVVMTQSPATLSVSPGERATLSCRASQSVGSNLAWYQQKPGQAPRLLIYGASTRATGIPARFSGSGSGTEFTLTISSLQSEDFAVYCCQQYNHWWTFGQGTKVEIKR |
| 0.1557 µg/mL | 0.4032 | – | mAb 5.88.3: fully human anti-Angiopoietin-2 monoclonal antibody, variable regions SEQ ID NO: 29-32 (antibody, listed as Homo Sapiens, V domains shown) VH: EVQMVESGGGLVQPGGSLRLSCAASGFTLRSYWMSWVRQAPGKGLEWVANIKEDGSEKYHVDSVKGRFTISRDNAENSLFLQMSSLRAEDTAVYYCARDMEASAGLFDYWGQGTLVTVSSA VL: EIVMTQSPATLSVSPGERAILSCRASQSISSNLAWYQQKPGQAPRLLIYGASTRATGIPARFSGSGSGTEFTLTISSLQSEDFAVYYCQQYNYWWTFGQGTKVEIKR |
